The values that follow come from patent US20170281723A1 (OHIO STATE INNOVATION FOUNDATION, published 2017).

Test [1] deals with Calcineurin (CN), purified as glutathione S-transferase fusion protein from Escherichia coli BL21 cells (UniProt Q08209). The test is described as follows: fluorescence anisotropy, ratio of KD values against VIVIT. On the technique in general: In fluorescence polarisation assays a small probe gives low polarisation when free and higher when bound to something large.
The target is the same in test [2]. Description: fluorescence anisotropy, N-terminal 5(6)-SFX labeled peptide (100 nM) titrated with CN.
Test [3] shares this target. Description: FA competition, competitor FITC-ZIZIT (100 nM), CN 150 nM.
Test [4] shares this target. Description: in vitro binding to CN, against ZIZIT.
For test [5] the target is unchanged. Description: fluorescence anisotropy, ratio of KD values against ZIZIT.
In test [6] the target is protein-tyrosine phosphatase SHP1 (UniProt P29350). The test is described as follows: fluorescence anisotropy, FITC-labeled ZIZIT-cisPro 100 nM.
For another test, the target named is T1, Grb2 SH2 domain (UniProt P62993 60-152, limits assumed).
T1 construct: domain: SH2 domain; also called SH2 domain of Grb2
The test is described as above.

Test [7] has as its target bovine serum albumin (BSA) (bovine, UniProt P02769 25-607). The description is as above.

Starred links: 1 amine or outer side, 2 acyl side, 3 side chain; linkers in the order of their positions; H or OH if unused. Non-standard residues stand in square brackets, D forms with d. *: point of attachment. Cys(ΨMe,MePro) = 2,2-dimethyl-L-thiazolidine-4-carboxylic acid, cis-proline analog, CC1(C)SC[C@@H](C(=O)[*:2])N1[*:1]; F∗ = N-terminal 5(6)-SFX fluorescein label; Tle = CC(C)(C)[C@H](N)C(=O)O; NHPr = CCCN*

T1 sequence (P62993 60-152 limits assumed): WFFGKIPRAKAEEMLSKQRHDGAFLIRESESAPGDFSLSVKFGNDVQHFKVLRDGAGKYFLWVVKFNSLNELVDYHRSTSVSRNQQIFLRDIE
Sequence of bovine serum albumin (BSA) (P02769 25-607 limits assumed): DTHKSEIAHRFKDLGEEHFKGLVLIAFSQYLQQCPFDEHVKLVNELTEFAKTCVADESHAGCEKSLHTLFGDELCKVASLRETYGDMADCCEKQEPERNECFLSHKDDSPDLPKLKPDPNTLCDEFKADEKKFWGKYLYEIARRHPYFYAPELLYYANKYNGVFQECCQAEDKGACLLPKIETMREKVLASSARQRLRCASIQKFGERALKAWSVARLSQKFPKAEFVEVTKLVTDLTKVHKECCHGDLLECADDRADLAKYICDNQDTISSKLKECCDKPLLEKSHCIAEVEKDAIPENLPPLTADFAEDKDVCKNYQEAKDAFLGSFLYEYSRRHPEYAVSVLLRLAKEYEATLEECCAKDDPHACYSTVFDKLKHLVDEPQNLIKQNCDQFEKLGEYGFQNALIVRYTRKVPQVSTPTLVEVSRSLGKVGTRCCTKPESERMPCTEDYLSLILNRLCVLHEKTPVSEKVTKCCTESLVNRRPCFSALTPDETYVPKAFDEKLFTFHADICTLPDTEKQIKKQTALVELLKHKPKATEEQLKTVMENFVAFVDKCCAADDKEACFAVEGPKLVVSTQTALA

On to “Fluorescein-labeled ZIZIT peptide (GPHPZIZITGPHEE, Z = tert-leucine)”, for which the fold higher affinity than VIVIT in test [1] is 10 fold. Moreover, the Kd in test [2] turned out to be 43 nM.

For the molecule “unlabeled ZIZIT-cisPro peptide (GPHPZIZITG-Cys(Ψ^Me,MePro)-HEE)”, the IC50 in test [3] is 110 nM.

For “unlabeled ZIZIT peptide (GPHPZIZITGPHEE, Z = tert-leucine)”, the IC50 in test [3] was 280 nM.

On to {F∗}-GPHP[Tle]I[Tle]ITG[Cys(ΨMe,MePro)]HEEG-NHPr (also called FITC-labeled ZIZIT-cisPro) [F*-GPHPZIZITG-Cys(Ψ^Me,MePro)-HEEG-Propyl (F*-ZIZIT-cis), fluorescein-labeled ZIZIT-cisPro], for which the fold more active than ZIZIT for binding in test [4] was determined as 15 fold. Moreover, in test [1], the fold improvement of binding affinity over VIVIT worked out at 200 fold. For the same molecule, the fold increase of binding affinity over ZIZIT in test [5] was 20 fold. In addition, the results for the Kd in test [6] and in test [2] were above 15000 nM and 2.6 nM, respectively. In addition, the binding result (in the test with Grb2 SH2 domain; in test [7]) was “no binding (tested: 15 µM)” in each case.

Turning to {F∗}-GPHAVAVAAGPHEE-NH2 [F*-…-NH2 (F*-VAVAA), fluorescein-labeled negative control peptide], in test [2], the Kd was above 20000 nM.

Broadly, the Kd is the concentration at which binding is half-saturated. One may read the IC50 as the concentration needed to halve the response being measured.
